Sequences and labels used below:
B1: CoV2-01 (antibody, V domains shown)
VH: QVLLVQSGAEMKKPGASVKVSCKTSGYTFTNSYIHWVRQAPGQGLEWMGWINPISGGTNYAQKFQGRVTMTRDTSINTAYMELSRLRSDDTAVYYCARDRGDYDYGWGTSPFYFDYWGQGTLVTVSS
VL: DVQMTQSPSSLSASVGDRVTITCRASQSISRYLNWYQQKPGKAPKLLIYAASSLQSGVPSRFSGSGSGADFTLTISSLQPEDFATYYCQQSFSPPITFGQGTRLEIK
B2: CoV2-18 (antibody, V domains shown)
VH: QVQLVQSGAEVKKPGSSVKVSCKASGGTFSNYGISWVRQAPGQGLEWMGGIIPIFGTANYAQKFQGRVTITADKSTRTAYMELSSLRFEDTAVYYCARDRDDALTGLGLGGGFDIWGQGTMVTVSS
VL: QAVVTQPPSASGTPGQRVTISCSGSTSNIGTNTANWYQHLPGTAPKLLIYGNDRRPSGVPDRFSGSKSVTSASLAISGLQSEDEADYYCAAWDERLNGYVFGTGTKLTVL
B3: CoV2-29 (antibody, V domains shown)
VH: QVQLVESGGGLVQPGGSLRLSCAASGFTFSSYWMSWVRQAPGKGLEWVANIKQDGSEKYYVDSVKGRFTISRDNAKNSLYLQMNSLRAEDTAVYYCARMADDDFWRDLPGFYMDVWGKGTTVTVSS
VL: QAVVTQPASVSGSPGQSITISCTGTSSDVGGYNYVSWYQQHPGKAPKLMIYDVSNRPSGVSNRFSGSKSGNTASLTISGLQAEDEADYYCSSYTSSSTLVFGGGTKVTVL
B4: CoV2-17 (antibody, V domains shown)
VH: QVELVESGGGLVKPGGSLRLSCAASGFTFSSYSMNWVRQAPGKGLEWVSSISSSSSYIYYADSVKGRFTISRDNAKNSLYLQMNSLRAEDTAVYYCARGNVDIVATGEVDAFDIWGQGTMVSVSS
VL: QAVVTQPPSASGTLGQRVTISCSGSSSTIGSNYVYWYQQLPGTAPKLLIYRNNQRPSGVPDRFSGSKSGTSASLAISGLRSEDEADYYCAAWDDSLSGYVFGTGTQLTVL
B5: CoV2-35 (antibody, V domains shown)
VH: QVQLHQWGAGLLKPSETLSRTCAVYGGSFSGYSWTWIRQAPGKGLEWIGEINHGGSTKYNPSLESRVTISVDTSKKQFSLELRSVTAADTAVYYCARGYDTNWYGDGYNWFDPWGQGTLVSVSS
VL: NFMLTQPASVSVAPGKTASITCGGDNIGTKSVHWYRQKPGQAPVLVIYYDSDRPSGIPERFSGSNSGNTATLTISRVEAGDEADYYCQVGDSSSHVVFGGGTKVTVL
B6: CoV2-31 (antibody, V domains shown)
VH: B5 VH with H5Q, K58N, T68S, S121T
VL: QAVVTQPLSVSVALGQTAKIPCGGNNIGRKSVHWYQQKPGQAPVLVIYRDNNRPSGIPERFSGSNSGNTATLTISRAQAGDEADYYCQVWDSNTGVFGTGTKVTVL
B7: CoV2-34 (antibody, V domains shown)
VH: B5 VH with I51V, S56K, K58N, V67L, T68S, K76N
VL: DIQMTQSPSSLSASVGDRVTITCRASQKIDNFLNWYQQKPGKAPKLLIHGASNLQGGVSSRFSGSRSGTDFTLTITNLQPEDFATYYCQQSYNTPITFGQGTRLEIK
B8: CoV2-32 (antibody, V domains shown)
VH: EVQLVESGGGLVQPGRSLRLSCAAPRFTFDDYAIHWVRQVPGKGLEWVSGSSWNSGTIGYAPSVKGRFTISRDNAKNSLFLQMNSLRVEDTALYYCAILPGDYNRVADVFDIWGQGTMVIVSS
VL: QAVVTQPPSVSGAPGQRVTISCTGSSSNIGAGYDVHWYQQLPGTAPKLLIYGNNNRPSGVPDRFSGSKSGTSASLAITGLQVEDEADYYCQSYDSSLSGYVFGTGTKVTVL
B9: CoV2-33 (antibody, V domains shown)
VH: QVQLVESGGGLVQPGRSLRLSCAASRFTFDDHAMHWVRQAPGKGLEWVSGISWNGGIIGYADSVKGRFTISRDNAKNSLYLQMNSLRAEDTALYYCAKGMGFGESNYYAMDVWGQGTMVTVSS
VL: QSALTQPASVSGSPGQSITISCTGTSSDVGGYNYVSWYQQHPGKAPKLIIYDVSNRPSGVSNRFSGSKSGNTASLTISGLQAEDEAYYYCSSYTSISNLVVFGGGTKVTVL
B10: CoV2-11 (antibody, V domains shown)
VH: QVELVESGGGLVQPGRSLRLSCEASGFSFDNYAMHWVRQTPGKGLEWVSGITGNSGTIGYADSVKGRFTISRDNAKNSLYLQMNRLRAEDTALYYCAKDTDYDSSGSYFDYWGQGTLVTVSS
VL: QPVLTQPPSVAVAPGQTARITCGGKNIGRESVHWYQQKPDQAPVLVIYSDGDRPSGTSERFSGSRSGNAATLTISRVEAGDEADYFCQVWDPDTDHYVFGTGTELTVL
B11: CoV2-16 (antibody, V domains shown)
VH: B5 VH with S33Y, K58R, T68S, V92I, G115D, Q116R, S121T
VL: QAVVTQPPSVSGTPGQRVTISCSGSSSSIGSNTVHWYQHLPGTAPKLLMYNNNERPSGVPARFSGSKSGTSASLVITGLQADDEAEYYCQSYDTGLSGHVFGSGTELTVL
B12: CoV2-14 (antibody, V domains shown)
VH: EVQLQQSGPGLVKPSQTLSLTCAISGDSVSSNSAAWNWIRQSPSRGLEWLGRTYYRSKWYNDYAVSVKSRITINPDTSKNQFSLQLNSVTPEDTAVYYCAREEQQLVHDYYYYGMDVWGQGTMVTVSS
VL: QAVVTQPASVSGSPGQSITISCTGTSSDIGAYNYISWYQQHPGKAPKLIIYEVSNRPSGISYRFSGSKSGNTASLTISGLQAEDEANYYCSSYAGSISFGGGTKVTVL

Residue numbers refer to the chain shown, from its start.

Consider twelve molecules from patent publication US20230399384A1 (University of Texas, published 2023).

One experiment addresses T1, sCoV2-RBD (Fc-tagged RBD of SARS-CoV-2 S protein) (SARS-CoV-2; human, UniProt P0DTC2 319-541).
Assay: not given
As usually defined, the EC50 is the concentration that produces a half-maximal response. A high value points to lower potency in that assay. The molecule B1 yielded an EC50 of 0.83 nM.

B2 returned an EC50 of 2.41 nM.

Consider B3, for which a half-maximal response (EC50) required 4.04 nM.

Turning to B4, the midpoint of the response, the EC50, lay at 2.31 nM.

The target in the next experiment is T2, SARS-CoV-2 RBD protein (Sino Biological, Cat: 40592-V08B) (SARS-CoV-2, UniProt P0DTC2 319-541).
Assay: not given
Broadly, the Kd is the equilibrium constant for the complex coming apart. The low end stands for tighter binding, the high end for weaker binding. The term koff denotes the first-order rate constant of dissociation. The low end stands for a long-lived complex, the high end for a short-lived complex. A word on the kon: it is the rate constant with which the complex forms. Molecule B2 had a Kd of 11.4 nM, a koff of 0.000467 s⁻¹ and a kon of 41200 M⁻¹ s⁻¹.

In the case of B4, the Kd was 1.73 nM, the koff was determined as 5.78e-05 s⁻¹ and the association rate constant (kon) was found to be 33300 M⁻¹ s⁻¹.

For another experiment, the target named is T3, sCoV-RBD (Fc-tagged RBD of SARS-CoV S protein) (SARS-CoV; human, UniProt P59594 306-527). Description: ELISA, purified IgG1 on coated RBD protein. (An ELISA detects its analyte on a solid surface through an enzyme-linked reagent.)
B5: the binding result is recorded as “no binding (tested: one concentration, not printed)”.

For the molecule B6, the binding result is “no binding (tested: one concentration, not printed)”.

Turning to B7, the binding result was “no binding (tested: one concentration, not printed)”.

On to B8, for which the binding result is “no binding (tested: one concentration, not printed)”.

For B9, the binding result is “no binding (tested: one concentration, not printed)”.

For B3, the binding result is given as “no binding (tested: one concentration, not printed)”.

The next experiment concerns the target T1, sCoV2-RBD (Fc-tagged RBD of SARS-CoV-2 …). Kind of experiment: ELISA titration on coated sCoV2-RBD.
Regarding B5, the response was half-maximal at 40 nM (EC50).

For the molecule B6, the midpoint of the response, the EC50, lay at 58.1 nM.

In turn, B7 displayed an EC50 of 6.67 nM.

Regarding B1, the EC50 was found to be 0.83 nM.

Consider B10, for which the EC50 stood at 0.6 nM.

In the case of B2, the midpoint of the response, the EC50, lay at 2.41 nM.

B8 gave an EC50 of 12.6 nM.

Molecule B9 displayed an EC50 of 10.8 nM. This EC50 and that of the molecule before are within 1.5-fold of each other.

Take B3: the EC50 was determined as 4.05 nM.

In turn, B4 gave a half-maximal effective concentration (EC50) of 2.24 nM.

A further experiment concerns the target T2, SARS-CoV-2 RBD protein (Sino …). Kind of experiment: BLI (Octet), mAb on Protein A sensor. (Biolayer interferometry detects binding as a change in optical thickness at a sensor tip.)
As for B1, the Kd worked out at 10.8 nM, the koff was 0.000574 s⁻¹ and the kon amounted to 53300 M⁻¹ s⁻¹.

Consider B10, for which binding was put at a Kd of 4.97 nM, the koff amounted to 0.000306 s⁻¹ and the kon is 61600 M⁻¹ s⁻¹.

In the case of B8, the Kd came to 1730 nM, the koff amounted to 0.00158 s⁻¹ and the kon came out at 915 M⁻¹ s⁻¹.

Molecule B9 registered a Kd of 168 nM, a koff of 0.00137 s⁻¹ and a kon of 8180 M⁻¹ s⁻¹.

As for B4, the Kd stood at 53.4 nM, the koff is 0.00101 s⁻¹ and the kon amounted to 18900 M⁻¹ s⁻¹.

In the next experiment the target is S protein of SARS-CoV (SARS-CoV, UniProt P59594 14-1195). Kind of experiment: ELISA, purified IgG1 on coated S protein.
As to B5, the binding result is on record as “no binding (tested: one concentration, not printed)”.

Consider B6, for which the binding result was “no binding (tested: one concentration, not printed)”.

As to B7, the binding result is recorded as “no binding (tested: one concentration, not printed)”.

Take B1: the binding result is reported as “no binding (tested: one concentration, not printed)”.

As for B2, the binding result is on record as “no binding (tested: one concentration, not printed)”.

Regarding B8, the binding result is given as “no binding (tested: one concentration, not printed)”.

As for B9, the binding result is on record as “no binding (tested: one concentration, not printed)”.

As for B3, the binding result is “no binding (tested: one concentration, not printed)”.

With B4, the binding result is “no binding (tested: one concentration, not printed)”.

The target of another experiment is T1, sCoV2-RBD (Fc-tagged RBD of SARS-CoV-2 …). Kind of experiment: BLI (Octet) blocking of ACE2 binding to captured sCoV2-RBD.
By IC50 is commonly meant the concentration needed to halve the response being measured. The low end stands for greater potency, the high end for weaker potency. For B1, the 50% inhibitory concentration (IC50) was determined as 9.17 µg/mL.

Regarding B10, the IC50 turned out to be 2.97 µg/mL. This IC50 lies about 3.1-fold lower than the previous one.

B2 came in with an IC50 of 6.03 µg/mL.

The molecule B8 showed an IC50 of 10.4 µg/mL. Against the preceding molecule, the IC50 is about 1.7-fold higher.

B9 came in with an IC50 of 5.47 µg/mL. Against the preceding molecule, the IC50 is about 1.9-fold lower.

For the molecule B3, the IC50 was found to be 2.25 µg/mL.

Turning to B4, the IC50 was found to be 4.28 µg/mL. Against the preceding molecule, the IC50 is about 1.9-fold higher.

The target is the same in another experiment. Kind of experiment: ELISA titration on coated sCoV2-RBD. The source holds these as a separate data set.
Take B10: the half-maximal effective concentration (EC50) is 0.59 nM.

The target in another experiment is T3, sCoV-RBD (Fc-tagged RBD of SARS-CoV S …). Kind of experiment: phage ELISA, scFv on phage.
For B1, the binding result is given as “no binding”.

Regarding B2, the binding result was “no binding”.

Consider B4, for which the binding result is given as “no binding”.

Another experiment has as its target SARS-CoV-2 S protein on live SARS-CoV-2-mNG reporter virus (SARS-CoV-2, UniProt P0DTC2 14-1273). Kind of experiment: cell-based or functional assay.
Consider B11, for which the “NC50 (neutralisation of reporter SARS-CoV-2, Vero E6 cells)” value (shortened to “NC50”) worked out at 0.82 µg/mL.

As to B1, the “NC50” value came out at 5.2 µg/mL.

On to B2, for which the “NC50” value was 1.93 µg/mL.

Turning to B3, the “NC50” value was 1.13 µg/mL.

Turning to B12, the “NC50” value was determined as 0.46 µg/mL.

Take B4: the “NC50” value worked out at 2.49 µg/mL.

A further experiment deals with T2, SARS-CoV-2 RBD protein (Sino …).
Assay: not given
This is another data set of the same source.
As to B1, binding was put at a Kd of 10.8 nM.

B2 displayed a dissociation constant (Kd) of 11.4 nM. This Kd and that of the molecule before are within 1.5-fold of each other.

As to B4, the affinity, expressed as Kd, was 1.73 nM.
